From patent US20130156779A1 (GlaxoSmithKline, published 2013)
Changes are numbered by the printed parent chain.

B1: 1D9 H6L0 RR antibody (antibody, V domains shown)
VH: QVQLVQSGAEVKKPGASVKVSCKASGYTFTSYWMHWVRQAPGQGLEWMGVIDPSDGYSHYNQKFKGKVTLTVDTSISTAYMELSRLRSDDTAVYYCAGGLAGTLDYWGQGTTVTVSS
VL: DIQMTQSPSSLSASVGDRVTITCRSSQSIVHSSGNTYLQWYQQKPGKAPKLLIYKVSNRFSGVPSRFSGSGSGTDFTLTISSLQPEDFAVYYCFQGSHVPWTFGQGTKLEIKR
notes: Humanized RR variant
B2: 1D9 H6L3 RR antibody (antibody, V domains shown)
VH: B1 VH
VL: B1 VL with I2V
notes: Humanized RR variant
B3: 1D9 H6L4 RR antibody (antibody, V domains shown)
VH: B1 VH
VL: B1 VL with Q3L
B4: 1D9 H6L5 RR antibody (antibody, V domains shown)
VH: B1 VH
VL: B1 VL with I2V, Q3L, Y41F, Y54S
notes: also called 1D9 116L5 RR antibody
B5: 15D5 H3L1 antibody (antibody, V domains shown)
VH: QVQLVQSGAEVKKPGASVKVSCKASGYTFTDYNMNWVRQAPGQGLEWMGGINPNYGTTVYNQKFKGKATLTVDQSISTAYMELSRLRSDDTAVYYCARMTTIVPFDYWGQGTTVTVSS
VL: DIQMTQSPSSLSASVGDRVTITCRASQDISNYLNWYQQKPGKAPKLLIYYTSTLHSGVPSRFSGSGSGTDYTFTISSLQPEDIATYYCQQGYTLPWTFGGGTKVEIKR
notes: Humanized 15D5 variant
B6: 15D5 H1L1 antibody (antibody, V domains shown)
VH: B5 VH with V2F, T28S, R38K, M48I
VL: B5 VL
B7: 15D5 H1L3 antibody (antibody, V domains shown)
VH: B5 VH with V2F, T28S, R38K, M48I
VL: B5 VL with Y71F, F73L, I83F, G100Q, V104L
notes: Humanized 15D5 variant; also called 15D5 HIL3 antibody
B8: 15D5 H2L1 antibody (antibody, V domains shown)
VH: B5 VH with R38K, M48I
VL: B5 VL
notes: Humanized 15D5 variant
B9: 15D5 H2L2 antibody (antibody, V domains shown)
VH: B5 VH with R38K, M48I
VL: B5 VL with F73L, I83F, G100Q, V104L
notes: Humanized 15D5 variant
B10: 15D5 H3L3 antibody (antibody, V domains shown)
VH: B5 VH
VL: B5 VL with Y71F, F73L, I83F, G100Q, V104L
notes: also called 15D5 H31.3 antibody
B11: 15D5 H4L3 (antibody, V domains shown)
VH: B5 VH with A68V, Q74T
VL: B5 VL with Y71F, F73L, I83F, G100Q, V104L
notes: To be rechecked
B12: Chimeric 1D9 antibody (antibody, V domains shown)
VH: QVQLQQPGAELVRPGTSVKLSCKASGYTFTSYWMHWVKQRPGQGLEWIGVIDPSDGYSHYNQKFKGKATLTVDTSSSTAYMQLSSLTSEDSAVYYCAGGLAGTLDYWGQGTTLTVSS
VL: DVLMTQTPLSLPVSLGDQASISCRSSQSIVHSSGNTYLQWFLQKPGQSPKLLISKVSNRFSGVPDRFSGSGSGTDFTLRISRVEAEDLGLYYCFQGSHVPWTFGGGTKLEIK
notes: Murine VH fused to human IgG1 CH1-Fc, murine VL fused to human CK; also called Ch1D9; ch1D9
B13: 1D9 H2L2 RR antibody (antibody, V domains shown)
VH: B1 VH with K67R, L70M, V72R
VL: B1 VL with Y41F
notes: Humanized RR variant
B14: 1D9 H3L2 RR antibody (antibody, V domains shown)
VH: B1 VH with L70M, V72R, G98R
VL: B1 VL with Y41F
notes: Humanized RR variant
B15: Humanized 1D9 RR antibody (H6L2) (antibody, human IgG1, V domains shown)
VH: B1 VH
VL: DIQMTQSPSSLSASVGDRVTITCRSSQSIVHSSGNTYLQWFQQKPGKAPKLLIYKVSNRFSGVPSRFSGSGSGTDFTLTISSLQPEDFAVYYCFQGSHVPWTFGQGTKLEIKRR
notes: Human IgG1; also called 1D9 H6L2 RR antibody; h1D9 RR wt
B16: 1D9 H0L7 RR antibody (antibody, V domains shown)
VH: B1 VH with K67R, L70M, V72R, G98R
VL: DVVMTQSPLSLPVTLGQPASISCRSSQSIVHSSGNTYLQWFQQRPGQSPRRLISKVSNRFSGVPDRFSGSGSGTDFTLKISRVEAEDVGVYYCFQGSHVPWTFGQGTKLEIKR
notes: Humanized RR variant; captured by anti-human Fc
B17: 1D9 H0L9 RR antibody (antibody, V domains shown)
VH: B1 VH with K67R, L70M, V72R, G98R
VL: B16 VL with R50K, R51L
notes: Humanized RR variant; also called 1D9 HOL9 RR antibody
B18: 1D9 H3L6 RR antibody (antibody, V domains shown)
VH: B1 VH with L70M, V72R, G98R
VL: B16 VL with S54Y
B19: 1D9 H6L6 RR antibody (antibody, V domains shown)
VH: B1 VH
VL: B16 VL with S54Y
notes: To be rechecked
B20: 1D9 H6L9 RR antibody (antibody, V domains shown)
VH: B1 VH
VL: B16 VL with R50K, R51L
notes: Humanized RR variant

Tests used:
[1] = target: T1, Full-length human HER3 extracellular domain (ECD) (human, UniProt P21860 20-643); test: BIACORE 3000 SPR, mAb captured by anti-human Fc, ECD as analyte, 25 C
T1 construct: also called human HER3 ECD; HER-3 ECD full length
T1 sequence (P21860 20-643): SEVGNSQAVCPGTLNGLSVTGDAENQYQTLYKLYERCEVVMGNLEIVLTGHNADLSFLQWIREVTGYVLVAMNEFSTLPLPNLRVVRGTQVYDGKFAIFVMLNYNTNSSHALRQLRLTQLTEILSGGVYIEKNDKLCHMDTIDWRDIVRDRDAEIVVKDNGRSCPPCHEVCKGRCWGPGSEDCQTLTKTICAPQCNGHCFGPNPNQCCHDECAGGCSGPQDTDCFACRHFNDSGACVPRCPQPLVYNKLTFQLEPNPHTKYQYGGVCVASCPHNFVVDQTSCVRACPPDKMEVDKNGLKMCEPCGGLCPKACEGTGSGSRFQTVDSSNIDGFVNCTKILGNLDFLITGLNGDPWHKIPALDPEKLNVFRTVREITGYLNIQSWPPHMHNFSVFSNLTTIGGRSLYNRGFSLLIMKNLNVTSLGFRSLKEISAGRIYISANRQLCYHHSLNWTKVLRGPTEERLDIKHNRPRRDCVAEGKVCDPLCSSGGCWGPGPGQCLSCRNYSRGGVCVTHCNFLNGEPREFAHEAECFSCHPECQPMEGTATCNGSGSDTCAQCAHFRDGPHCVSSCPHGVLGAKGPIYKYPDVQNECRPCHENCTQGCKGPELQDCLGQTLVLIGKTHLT
Description: The binding kinetics of these antibodies for was assessed using a BIACORE™ 3000. Antibodies were captured on a CM5 biosensor chip to which an immobilized anti-human IgG (Fc specific) BIACORE™ (GE Healthcare cat# BR-1008-39) monoclonal antibody had been conjugated using supplied coupling buffer (9000 RU). Full-length human HER3 ECD concentrations were injected for 120s at a flow rate of 30 ul/min. Biosensor chips were regenerated as described in Example 1. Kinetics were determined by global fitting of data to the 1:1 Langmuir model using BIACORE™ Evaluation software. Analytical runs were carried out at 25° C. using FIBS-EP as the running buffer.
Buffer cycle and double referencing were performed as described in Example 1; and 5) Regenerate biosensor chips with BIACORE™ optimized buffers.

[2] = target: T2, Human HER3 ECD domain III (human, UniProt P21860 330-495); test: BIACORE 2000 SPR, mAb captured, HER3 protein as analyte, 25 C
T2 construct: also called D3; Domain 3
T2 sequence (P21860 330-495): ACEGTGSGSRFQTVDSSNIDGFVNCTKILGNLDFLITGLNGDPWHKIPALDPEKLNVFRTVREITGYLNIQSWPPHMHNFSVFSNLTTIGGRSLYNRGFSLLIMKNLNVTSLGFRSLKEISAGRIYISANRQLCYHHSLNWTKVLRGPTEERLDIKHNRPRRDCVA
Description: (§1) Mouse monoclonal antibodies were analysed using rabbit anti-mouse (RAM) IgG (GE Healthcare BR-1008-38) covalently coupled to a BIACORE™ CM5 chip (GE HEalthcare BR-1000-14) by primary amine chemistry (NHS/EDC activated) (GE Healthcare amine coupling kit BR-1000-50). Chimeric and humanized competitor monoclonal antibodies were analyzed using anti-human, Fc specific monoclonal (GE Healthcare BR-1008-39) similarly coupled. Each chip was also prepared with a reference surface to which no capture reagent antibody is coupled. Sensorgrams for cycles run with differing analyte concentrations are acquired for kinetic analysis. A cycle consists of capturing the monoclonal on the surface, a short stabilization period with flowing run buffer followed by binding of a defined concentration of analyte (ECD or sub-domain protein). Injection of analyte for surface binding (3-4 minutes) yields the association part of curve. This is followed by buffer only flow (3-4 minutes) which allows recording of dissociation data.
(§2) The general method for affinity analysis is as follows. First, chips were prepared and tested for reasonance units (RU) captured for several monoclonal antibody concentrations. Kinetic cycles were then run in which monoclonal antibody was captured to a level of approximately 100RU, analyte protein was allowed to bind then dissociate and the surface was regenerated to remove all but covalently coupled protein. RAM chips were regenerated with capture kit supplied 100 mM glycine pH1.7 and anti-human chips with capture kit supplied 3M MgCl₂. […] Several buffer cycles were run prior to analyte protein to ensure cycle consistency and in some experiments a buffer cycle is used a “double reference[.]” Analytes used were human full length HER3 extra cellular domain (ECD), separate sub-domains of the extracellular portion of human HER3 (D1, D2, D3, D4), or combination HER3 domain proteins (D1-2 and D2-3).

[3] = target: T1, Full-length human HER3 extracellular …; test: as above
Description: as §1, §2

[4] = target: T2, Human HER3 ECD domain III; test: affinity summary table, method not given
[5] = target: T1, Full-length human HER3 extracellular …; test: affinity summary table, method not given

| Binder | Kd [1] [nM] | koff [1] [s⁻¹] | kon [1] [M⁻¹ s⁻¹] | Kd [2] [nM] | kon [2] [M⁻¹ s⁻¹] | Kd [3] [nM] | kon [3] [M⁻¹ s⁻¹] | Kd [4] [nM] | Kd [5] [nM] |
| --- | --- | --- | --- | --- | --- | --- | --- | --- | --- |
| B1 | 7.51 | 0.00366 | 487000 | – | – | – | – | – | – |
| B2 | 3.91 | 0.00302 | 773000 | – | – | – | – | – | – |
| B3 | 7.89 | 0.0041 | 519000 | – | – | – | – | – | – |
| B4 | 6.87 | 0.00371 | 540000 | – | – | – | – | – | – |
| B5 | 4.21 | 0.000171 | 40500 | – | – | – | – | – | – |
| B6 | 7.19 | 0.000267 | 37100 | – | – | – | – | – | – |
| B7 | 10 | 0.000345 | 34400 | – | – | – | – | – | – |
| B8 | 8.7 | 0.000365 | 41900 | – | – | – | – | – | – |
| B9 | 12.8 | 0.00407 | 317000 | – | – | – | – | – | – |
| B10 | 8.72 | 0.000367 | 42100 | – | – | – | – | – | – |
| B11 | 24.7 | 0.000935 | 37900 | – | – | – | – | – | – |
| B12 | – | – | – | 0.2 | 4.58e+06 | 1.1 | 740000 | 0.198 | ~1 |
| B13 | 13.4 | 0.00444 | 331000 | – | – | – | – | – | – |
| B14 | 59.4 | 0.00316 | 53300 | – | – | – | – | – | – |
| B15 | 3.96 | 0.0017 | 430000 | – | – | – | – | 0.018 | 4.1 |
| B16 | 59.5 | 0.00195 | 32700 | – | – | – | – | – | – |
| B17 | 38.1 | 0.0144 | 377000 | – | – | – | – | – | – |
| B18 | 95.8 | 0.00292 | 30400 | – | – | – | – | – | – |
| B19 | 7.02 | 0.00487 | 694000 | – | – | – | – | – | – |
| B20 | 3.35 | 0.00223 | 665000 | – | – | – | – | – | – |
